# Tests used:
# [1] = target: IgG1-005-E345R/E430G/S440K (human); assay: HP-SEC in PBS pH 7.4, equimolar mixture of the two antibodies
# [2] = target: IgG1-005-E345R/E430G/Y436I/S440K (human); assay: as above
# [3] = target: FcyRIIIa receptor, V158 (high affinity) variant (UniProt P08637); assay: cell-based or functional assay
# [4] = target: Protein A (Staphylococcus aureus) (UniProt P38507); assay: ratio of the concentrations by Octet protein A and by A280
# [5] = target: Protein A column (HiTrap MabSelectSuRe); assay: 1.0 mL HiTrap MabSelectSuRe column, pH 5.0 against neutral pH
# [6] = target: IgG1-005-E345R/E430G/S440Y (human); assay: HP-SEC with multiple angle light scattering (MALS), self-association
# [7] = target: IgG1-005-E345R/E430G/S440Y (human); assay: dynamic light scattering, 2.86 mg/mL in PBS pH 7.4, self-association
# [8] = target: C1q (human) (UniProt P02745); assay: ELISA: antibody dilution series coated, 3% pooled human serum as source of C1q, anti-C1q detection
# [9] = target: Protein A (Staphylococcus aureus) (UniProt P38507); assay: apparent IgG concentration on Octet QK protein A sensortips against an IgG standard curve; A280 gave 2905 µg/ml
# [10] = target: Protein A column (HiTrap MabSelectSuRe); assay: saturated 1.0 mL HiTrap MabSelectSuRe column loaded at pH 5.0 (antibody monomeric), A280 of the dialyzed eluate
# [11] = target: Protein A column (HiTrap MabSelectSuRe); assay: saturated 1.0 mL HiTrap MabSelectSuRe column loaded at neutral pH (hexamerization allowed), A280 of the dialyzed eluate
# Chain of FcyRIIIa receptor, V158 (high affinity) variant (P08637 other isoform, or with tags, fused parts or gaps mutant limits assumed): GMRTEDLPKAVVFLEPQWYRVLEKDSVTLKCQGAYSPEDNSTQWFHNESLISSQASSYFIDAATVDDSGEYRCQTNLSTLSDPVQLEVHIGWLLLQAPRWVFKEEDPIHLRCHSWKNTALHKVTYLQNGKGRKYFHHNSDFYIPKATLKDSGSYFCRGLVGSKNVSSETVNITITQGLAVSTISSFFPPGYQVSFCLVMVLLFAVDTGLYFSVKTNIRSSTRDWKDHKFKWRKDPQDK
# Chain of C1q (human) (P02745 23-245 limits assumed, chain 1 of 3): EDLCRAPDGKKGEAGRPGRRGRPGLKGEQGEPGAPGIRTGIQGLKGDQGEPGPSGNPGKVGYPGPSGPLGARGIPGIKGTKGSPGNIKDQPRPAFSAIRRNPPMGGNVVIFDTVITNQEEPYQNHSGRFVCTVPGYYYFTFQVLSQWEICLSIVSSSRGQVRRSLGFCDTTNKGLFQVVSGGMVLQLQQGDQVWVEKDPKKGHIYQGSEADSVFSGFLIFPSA
# Chain of C1q (human) (P02746 28-253 limits assumed, chain 2 of 3, further chain): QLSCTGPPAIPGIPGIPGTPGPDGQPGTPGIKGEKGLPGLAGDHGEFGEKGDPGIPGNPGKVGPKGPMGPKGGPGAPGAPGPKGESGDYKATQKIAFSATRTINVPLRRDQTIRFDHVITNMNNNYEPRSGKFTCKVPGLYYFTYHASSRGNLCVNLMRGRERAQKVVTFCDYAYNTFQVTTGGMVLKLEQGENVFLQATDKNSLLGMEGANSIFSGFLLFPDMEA
# Chain of C1q (human) (P02747 29-245 limits assumed, chain 3 of 3, further chain): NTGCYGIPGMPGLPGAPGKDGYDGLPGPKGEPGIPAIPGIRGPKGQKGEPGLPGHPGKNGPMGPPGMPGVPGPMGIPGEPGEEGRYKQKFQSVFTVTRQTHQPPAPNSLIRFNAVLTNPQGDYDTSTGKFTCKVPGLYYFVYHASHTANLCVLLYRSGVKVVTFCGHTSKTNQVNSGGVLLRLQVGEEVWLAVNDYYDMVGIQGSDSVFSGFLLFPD
multimers (HP-SEC) [1] [%],multimers (HP-SEC) [2] [%],Substance,"EC50 (ng/mL), ADCC reporter assay with Raji target cells [3] [ng/mL]","Maximal signal (RLU), ADCC reporter assay with Raji target cells [3] [RLU]",A280/Protein A x 100 (%) [4] [%],"increase of protein yield, binding at pH 5.0 against neutral pH [5] [%]",apparent average MW of the multimeric peak [6] [kDa],monomeric subunits per complex (monomeric subunits) [6],apparent MW in solution [7] [kDa],monomeric subunits per complex (monomeric subunits) [7],EC50 [8] [µg/mL],Octet-Protein A [9] [µg/mL],yield of Protein A purification at 1.0 mL scale [10] [mg],yield of Protein A purification at 1.0 mL scale [11] [mg]
65,93,IgG1-005-E345R/E430G/K439E/S440Y (antibody),–,–,–,–,–,–,–,–,–,–,–,–
–,–,IgG1-005-E345R/E430G/S440Y (antibody),36,394000,71,36,772,5.4,876,6.17,0.52,2050,29.1,21.4

# Source: patent EP3632462A1
